{
  "source": "patent US20240383964A1",
  "about": "“De Novo Designed alpha(5) beta(1) Integrin selective minibinders” (UNIVERSITY OF WASHINGTON, priority 2023, published 2024)",
  "molecules": {"B1": {"name": "00179_v4.1: highest affinity α5β1 minibinder, sequence SELIIHGRGDFPSSELERLRERFERLGIKVRVDHKVLTLIGISEEEAERLARELRKRGIWVEIRK (protein)", "chain": "SELIIHGRGDFPSSELERLRERFERLGIKVRVDHKVLTLIGISEEEAERLARELRKRGIWVEIRK"}},
  "target": "integrin α5β1 (Homo sapiens, UniProt P05556+P08648)",
  "sequence (P08648 42-894 limits assumed)": "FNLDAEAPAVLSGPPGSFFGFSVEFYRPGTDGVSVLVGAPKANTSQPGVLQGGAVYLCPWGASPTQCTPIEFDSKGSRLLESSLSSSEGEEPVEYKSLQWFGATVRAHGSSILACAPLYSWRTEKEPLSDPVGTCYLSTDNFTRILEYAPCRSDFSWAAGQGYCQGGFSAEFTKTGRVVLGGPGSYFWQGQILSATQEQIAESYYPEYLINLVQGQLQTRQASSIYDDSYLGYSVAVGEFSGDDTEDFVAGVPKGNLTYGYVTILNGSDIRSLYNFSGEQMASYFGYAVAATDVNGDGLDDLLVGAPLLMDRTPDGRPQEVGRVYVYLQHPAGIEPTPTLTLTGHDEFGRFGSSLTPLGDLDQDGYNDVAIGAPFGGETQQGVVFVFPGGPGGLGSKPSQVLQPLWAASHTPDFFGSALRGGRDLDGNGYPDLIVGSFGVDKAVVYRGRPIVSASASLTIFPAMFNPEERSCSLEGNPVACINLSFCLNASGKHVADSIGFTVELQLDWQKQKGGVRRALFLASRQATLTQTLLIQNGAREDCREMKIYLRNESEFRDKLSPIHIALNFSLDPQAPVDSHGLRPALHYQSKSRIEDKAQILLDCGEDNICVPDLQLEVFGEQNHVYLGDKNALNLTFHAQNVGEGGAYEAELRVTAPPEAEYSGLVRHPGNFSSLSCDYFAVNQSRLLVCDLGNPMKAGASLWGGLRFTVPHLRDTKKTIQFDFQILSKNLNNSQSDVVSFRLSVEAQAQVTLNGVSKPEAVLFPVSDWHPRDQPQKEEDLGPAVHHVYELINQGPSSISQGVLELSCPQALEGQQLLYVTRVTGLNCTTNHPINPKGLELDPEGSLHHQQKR",
  "sequence (P08648 895-995 partner limits assumed)": "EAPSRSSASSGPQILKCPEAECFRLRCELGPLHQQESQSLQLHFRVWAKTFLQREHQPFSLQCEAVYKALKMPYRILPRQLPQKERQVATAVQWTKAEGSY",
  "sequence (P05556 21-728 limits assumed)": "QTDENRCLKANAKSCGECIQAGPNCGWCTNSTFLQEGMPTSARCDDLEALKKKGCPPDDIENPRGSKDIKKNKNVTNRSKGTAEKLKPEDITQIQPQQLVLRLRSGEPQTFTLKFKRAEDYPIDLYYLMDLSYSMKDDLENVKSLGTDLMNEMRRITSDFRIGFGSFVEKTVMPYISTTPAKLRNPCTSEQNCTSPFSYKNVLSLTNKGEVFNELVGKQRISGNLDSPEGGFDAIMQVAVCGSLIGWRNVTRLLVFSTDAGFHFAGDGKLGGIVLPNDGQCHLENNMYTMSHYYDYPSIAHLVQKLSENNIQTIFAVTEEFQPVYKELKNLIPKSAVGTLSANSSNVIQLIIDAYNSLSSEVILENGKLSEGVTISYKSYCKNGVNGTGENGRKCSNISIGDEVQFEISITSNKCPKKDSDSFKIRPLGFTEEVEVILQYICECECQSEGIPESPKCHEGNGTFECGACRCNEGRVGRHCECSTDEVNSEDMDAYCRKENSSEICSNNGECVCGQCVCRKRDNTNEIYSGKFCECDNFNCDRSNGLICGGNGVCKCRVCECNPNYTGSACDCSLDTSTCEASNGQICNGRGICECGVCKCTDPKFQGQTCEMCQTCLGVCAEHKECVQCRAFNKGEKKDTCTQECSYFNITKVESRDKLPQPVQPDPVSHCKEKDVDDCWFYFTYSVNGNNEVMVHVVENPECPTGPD",
  "test": "Biolayer interferometry (BLI) binding to integrin α5β1",
  "settings": "pH 5 supplemented with 1 mM MgCl2, 1 mM CaCl2",
  "description": "The polypeptides of the disclosure selectively bind to α5β1 integrin with antagonistic activity. The term “antagonistic activity” is used herein to describe the activity of a polypeptide that, upon binding to α5β1 integrin, inactivates the integrin complex or inhibits processes normally initiated by the integrin. In some embodiments, the polypeptide or fusion protein of any embodiment or combination of embodiments herein, binds integrin α5β1 with an affinity of between about 0.025 nm and about 50 μm, or between about 0.05 nm and about 8 μm, or between about 0.05 nm and about 8 μm, or between about 0.05 nm and about 2.5 μm, or between about 0.05 nm and about 700 nm, or between about 0.05 nm and about 0.5 nm. The binding affinity can be measured, for example, using biolayer interferometry (BLI) or yeast display. […] In one such assay to measure the binding affinity to a51integrin, the polypeptides are cloned with an N-terminus avi-tag and biotinylated chemically. Prior to measurements, streptavidin-coated biosensors are first hydrated in assay buffer for 10 minutes. […]\n15 constructs of identified initial hits were expressed and purified—their binding affinities range from nanomolar to micromolar (data not shown). […] The binding affinity of each variant was calculated as described in Cao et al, 2022. […]",
  "data": [
    {"molecule": "B1", "values": [
      {"measurement": "binding to α5β1 at pH 5", "value": "still can bind"}
    ]}
  ]
}
